Assay results taken from patent US20240336686A1 (ELPISCIENCE SUZHOU BIOPHARMA, published 2024).
Like-named read-outs stand apart in the source and are kept apart here. Blank lines part the entries; values can stand above or below the binder they belong to.

What was measured:
[1] = biological target: T1, His tagged human SIRPα v1 ECD (human, UniProt P78324 31-373); assay: HDX-MS
T1 construct: extracellular domain; not shown: His tag

[2] = biological target: T2, human SIRPα v1 on CHOK1 cells (human, UniProt P78324 31-504); assay: FACS, CHOK1 cells stably expressing human SIRPα v1
T2 construct: whole, on cells; also called CHOK1-hSIRPα v1; cell surface human SIRPα v1
T2 sequence (P78324 31-504): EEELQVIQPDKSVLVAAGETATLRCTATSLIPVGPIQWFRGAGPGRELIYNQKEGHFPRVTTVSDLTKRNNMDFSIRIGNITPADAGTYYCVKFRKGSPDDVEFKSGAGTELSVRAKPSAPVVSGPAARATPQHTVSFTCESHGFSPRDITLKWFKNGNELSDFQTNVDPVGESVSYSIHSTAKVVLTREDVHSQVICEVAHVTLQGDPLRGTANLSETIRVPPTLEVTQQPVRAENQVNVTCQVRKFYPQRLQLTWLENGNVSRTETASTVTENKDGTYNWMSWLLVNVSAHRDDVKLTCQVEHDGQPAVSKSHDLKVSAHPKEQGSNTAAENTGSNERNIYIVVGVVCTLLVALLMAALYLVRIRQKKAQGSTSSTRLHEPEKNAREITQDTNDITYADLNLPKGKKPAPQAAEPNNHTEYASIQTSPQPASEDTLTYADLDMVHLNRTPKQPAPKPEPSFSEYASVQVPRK
From the text: (§1) Binding activity of the purified chimeric antibodies against human SIRPα variants was detected by FACS assay using CHOK1 cells or 293F cells stably expressing human SIRPα v1 and CHOK1 cells stably expressing human SIRPα v2. […] EC₅₀ and top signal calculated using GraphPad Prism9.0.

[3] = biological target: T3, Full length human SIRPα v1 with beta-gal fragment (ED) at its C-terminal, in K562 cells (human, UniProt P78324 31-504); assay: cell-based or functional assay
T3 sequence (P78324 31-504): as above

Human SIRPα v2 = biological target: T4, Human SIRPα v2 (human); assay: SPR (Biacore), 1:1 binding model
T4 construct: also called human SIRPα v2 (antigen of the Biacore assay)
Protocol: The humanized antibodies were characterized for binding affinity against human SIRPα v1, human SIRPα v2 using Surface Plasmon Resonance technology (Biacore system). The association and dissociation curves were fit with 1:1 binding model, and the Ka/Kd/KD values for each antibody were calculated.

[4] = biological target: T5, human SIRPα v2 ECD recombinant protein (human); assay: competitive ELISA, plate-coated human SIRPα v2 ECD; blocked ligand: mFc tagged human CD47 ECD
T5 construct: extracellular domain; Coated on the ELISA plate
Protocol: (§2) Competitive ELISA assay was used to determine whether the purified chimeric antibodies can block CD47 and SIRPα interaction. Briefly, antibody and mFc tagged human CD47 ECD recombinant protein were co-incubated with ELISA microplate coated human SIRPα v1 ECD or human SIRPα v2 ECD recombinant protein. The concentration of soluble ECD of CD47 is 25 nM, and the concentration of soluble ECD of SIRPα is 20 nM. After washing, HRP labeled anti-mouse Fc 2nd antibody (Sigma) was added and incubated at 37° C. for 1 hour. Then, 100 μl/well of TMB solution (Biotechnology) was added. After incubation for 15 minutes at room temperature, the reaction was stopped by the addition of 50 μl of 1N HCl. OD 450 nm was read. Blocking ratio was determined by blockade of human SIRPα ECD recombinant protein binding to ELISA microplate coated human CD47 ECD recombinant protein. All antibodies as tested can block interaction between human CD47 and different human SIRPα variants.
(§3) The humanized antibodies were tested for the ability to block CD47 and SIRPα interaction with competitive ELISA assay (refer to methods described above).

[5] = biological target: T3, Full length human SIRPα v1 with …; assay: cell-based or functional assay; remark: listed apart in the source
[6] = biological target: T6, human SIRPα v1 ECD recombinant protein (human, UniProt P78324 31-373); assay: competitive ELISA, plate-coated human SIRPα v1 ECD; blocked ligand: mFc tagged human CD47 ECD
T6 construct: extracellular domain; Coated on the ELISA plate
T6 sequence (P78324 31-373): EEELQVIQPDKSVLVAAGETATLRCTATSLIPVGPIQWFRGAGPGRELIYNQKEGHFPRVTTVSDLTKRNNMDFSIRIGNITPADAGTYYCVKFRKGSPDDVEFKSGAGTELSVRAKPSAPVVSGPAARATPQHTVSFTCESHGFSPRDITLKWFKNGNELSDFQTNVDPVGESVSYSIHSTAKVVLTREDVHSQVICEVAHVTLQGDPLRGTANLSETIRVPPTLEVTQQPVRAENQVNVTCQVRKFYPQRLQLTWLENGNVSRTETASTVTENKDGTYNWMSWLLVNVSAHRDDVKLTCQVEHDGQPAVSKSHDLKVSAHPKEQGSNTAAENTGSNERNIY
Protocol: as §2, §3

[7] = biological target: T7, mFc tagged human SIRPα v1 ECD recombinant protein (human, UniProt P78324 31-373); assay: competitive ELISA; row antibody in excess in solution, coated mAb hu1H9G4
T7 construct: extracellular domain; not shown: mouse Fc tag
T7 sequence (P78324 31-373): as above
Protocol: (§4) Competitive ELISA assay was used for epitope binning of purified chimeric antibodies. Briefly excessive competitor antibody and mFc tagged human SIRPα v1 ECD recombinant protein were co-incubated with ELISA microplate coated antibody. After washing, HRP labeled anti-mouse Fc 2nd antibody (Sigma) was added and incubated at 37° C. for 1 hour. Then, 100 μl/well of TMB solution (Biotechnology) was added. After incubation for 15 minutes at room temperature, the reaction was stopped by the addition of 50 μl of 1N HCl. OD 450 nm was read. Competition ratio was calculated. The antibodies that can compete each other for binding to SIRPα may have related binding epitopes.

[8] = biological target: T8, human SIRPα v2 on CHOK1 cells (human, UniProt P78324 31-504); assay: FACS, CHOK1 cells stably expressing human SIRPα v2
T8 construct: whole, on cells; also called CHOK1-hSIRPα v2; cell surface human SIRPα v2
T8 sequence (P78324 other isoform, or with tags, fused parts or gaps limits assumed): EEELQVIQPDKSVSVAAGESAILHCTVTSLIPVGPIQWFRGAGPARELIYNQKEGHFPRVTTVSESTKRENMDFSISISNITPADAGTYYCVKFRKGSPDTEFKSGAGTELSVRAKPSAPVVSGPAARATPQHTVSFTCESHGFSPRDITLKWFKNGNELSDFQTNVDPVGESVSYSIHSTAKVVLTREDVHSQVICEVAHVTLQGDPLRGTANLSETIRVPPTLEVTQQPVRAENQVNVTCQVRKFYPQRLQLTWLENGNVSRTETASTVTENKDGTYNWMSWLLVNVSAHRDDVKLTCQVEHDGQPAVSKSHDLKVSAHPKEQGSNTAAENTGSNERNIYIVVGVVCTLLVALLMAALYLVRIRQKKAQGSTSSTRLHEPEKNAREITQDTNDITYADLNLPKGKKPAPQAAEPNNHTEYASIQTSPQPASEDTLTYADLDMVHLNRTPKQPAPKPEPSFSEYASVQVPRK

[9] = biological target: T7, mFc tagged human SIRPα v1 ECD …; assay: competitive ELISA; row antibody in excess in solution, coated mAb 025c
Protocol: as §4

[10] = biological target: T7, mFc tagged human SIRPα v1 ECD …; assay: competitive ELISA; row antibody in excess in solution, coated mAb 042c
Protocol: as §4

[11] = biological target: T6, human SIRPα v1 ECD recombinant protein; assay: competitive ELISA, plate-coated human SIRPα v1 ECD; blocked ligand: mFc tagged human CD47 ECD; remark: listed apart in the source
Protocol: as §2

[12] = biological target: T2, human SIRPα v1 on CHOK1 cells; assay: FACS, CHOK1 cells stably expressing human SIRPα v1; remark: listed apart in the source
[13] = biological target: T6, human SIRPα v1 ECD recombinant protein; assay: competitive ELISA, plate-coated human SIRPα v1 ECD; blocked ligand: mFc tagged human CD47 ECD; remark: listed apart in the source
Protocol: as §2, with “ECD” for “ECD or human SIRPα v2 ECD”, “protein.” for “protein. The concentration of soluble ECD of CD47 is 25 nM, and the concentration of soluble ECD of SIRPα is 20 nM.”, “protein.” for “protein. All antibodies as tested can block interaction between human CD47 and different human SIRPα variants.”

[14] = biological target: T8, human SIRPα v2 on CHOK1 cells; assay: FACS, CHOK1 cells stably expressing human SIRPα v2; remark: listed apart in the source
From the text: as §1

[15] = biological target: T2, human SIRPα v1 on CHOK1 cells; assay: competitive FACS, CHOK1 cells stably expressing human SIRPα v1; blocked ligand: mFc tagged human CD47 ECD
Protocol: (§5) Competitive FACS assay was also set up to further compare the blocking activity of the humanized antibodies and some known anti-SIRPα antibodies. Briefly antibody and mFc tagged human CD47 ECD recombinant protein were co-incubated with CHOK1 cells stably expressing human SIRPα v1 or human SIRPα v2. After washing, dye labeled anti-mouse Fc 2nd antibody (Sigma) was added and incubated at 37° C. for 1 hour. Fluorescence intensity was detected. Blocking ratio was determined by blockade of human CD47 ECD recombinant protein binding to SIRPα expressed CHOK1 cells.

[16] = biological target: T5, human SIRPα v2 ECD recombinant protein; assay: competitive ELISA, plate-coated human SIRPα v2 ECD; blocked ligand: mFc tagged human CD47 ECD; remark: listed apart in the source
Protocol: as §2

[17] = biological target: T8, human SIRPα v2 on CHOK1 cells; assay: competitive FACS, CHOK1 cells stably expressing human SIRPα v2; blocked ligand: mFc tagged human CD47 ECD
Protocol: as §5

T1 sequence (P78324 31-373): as the sequence (P78324 31-373) above

binding result [1]: binds
B1: Reference anti-SIRPα antibody HEFLB (antibody, human IgG4, V domains shown)
VH: EVQLVQSGAEVKKPGESLRISCKASGYSFTSYWVHWVRQMPGKGLEWMGNIDPSDSDTHYSPSFQGHVTLSVDKSISTAYLQLSSLKASDTAMYYCVRGGTGTLAYFAYWGQGTLVTVSS
VL: DVVMTQSPLSLPVTLGQPASISCRSSQSLVHSYGNTYLYWFQQRPGQSPRLLIYRVSNRFSGVPDRFSGSGSGTDFTLKISRVEAEDVGVYYCFQGTHVPYTFGGGTKVEIK

EC50 [2]: 1.49 nM
TOP MFI [2]: 77600 MFI
IC50 (SHP-1 recruitment blocking) [3]: 0.08 nM
TOP blocking (SHP-1 recruitment) [3]: 87%
Kd (Human SIRPα v2): 1.69 nM
koff (Human SIRPα v2): 0.00254 s⁻¹
kon (Human SIRPα v2): 1.51e+06 M⁻¹ s⁻¹
IC50 [4]: 1.86 nM
TOP blocking [4]: 98.6%
IC50 (SHP-1 recruitment blocking) [5]: 0.28 nM
TOP blocking (SHP-1 recruitment) [5]: 84.5%
IC50 [6]: 2.03 nM
TOP blocking [6]: 97.5%
% Competition [7]: 15.3%
EC50 [8]: 0.99 nM
TOP MFI [8]: 53000 MFI
% Competition [9]: 93.5%
% Competition [10]: 19.1%
IC50 [11]: 2.12 nM
TOP blocking [11]: 96.5%
EC50 [12]: 1.22 nM
TOP MFI [12]: 64700 MFI
IC50 (read off the curve) [13]: ~2 nM
EC50 [14]: 1.34 nM
TOP MFI [14]: 51600 MFI
IC50 [15]: 0.4 nM
TOP blocking [15]: 97.6%
IC50 [16]: 2.21 nM
TOP blocking [16]: 96.5%
IC50 [17]: 0.63 nM
TOP blocking [17]: 99.7%
B2: Anti-SIRPα antibody C25 (antibody, V domains shown)
VH: EVQLQQSGAELVKPGASVKLSCTASGFNIKDYYMHWVKQRTEQGLEWIGRIDPEDGETKYAPKFQGKATITADTSSNTAYLQLSSLTSEDTAVYYCDRGLAYWGQGTLVTVSA
VL: QIVLTQSPAIMSASPGEKVTLTCSASSSVSSSYLYWYQQKPGSSPKLWIYSTSNLASGVPARFSGSGSGTSYSLTISSMEAEDAASYFCHQWSSYPYTFGGGTKLEIK
notes: Mouse variable regions; also called 025c; 025
